Legend:
[1] = molecular target: pUL50 (Human cytomegalovirus) (UniProt P16791); test: competition with pUL50-pUL53 interaction; details: cited from earlier work
[2] = molecular target: pUL53 hook peptide (Human cytomegalovirus) (UniProt P16794); details: cited from earlier work
pUL50 [3] = molecular target: T1, pUL50 (Human cytomegalovirus, UniProt P16791); test: competition with pUL50-pUL53 interaction
T1 chain: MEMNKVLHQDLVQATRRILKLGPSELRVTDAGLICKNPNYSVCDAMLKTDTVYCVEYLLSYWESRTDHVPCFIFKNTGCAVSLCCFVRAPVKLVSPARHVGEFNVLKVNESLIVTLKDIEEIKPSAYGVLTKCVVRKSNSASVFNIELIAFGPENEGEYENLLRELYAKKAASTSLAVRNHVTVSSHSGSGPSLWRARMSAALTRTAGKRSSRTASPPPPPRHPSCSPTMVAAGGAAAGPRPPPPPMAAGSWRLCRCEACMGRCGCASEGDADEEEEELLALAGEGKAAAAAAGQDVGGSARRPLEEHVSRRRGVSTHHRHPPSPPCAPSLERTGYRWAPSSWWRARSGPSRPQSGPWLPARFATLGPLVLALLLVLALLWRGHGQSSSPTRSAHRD

BFRF1 = molecular target: T2, BFRF1 (Epstein-Barr virus, UniProt P03185); test: fluorescence polarization
T2 chain: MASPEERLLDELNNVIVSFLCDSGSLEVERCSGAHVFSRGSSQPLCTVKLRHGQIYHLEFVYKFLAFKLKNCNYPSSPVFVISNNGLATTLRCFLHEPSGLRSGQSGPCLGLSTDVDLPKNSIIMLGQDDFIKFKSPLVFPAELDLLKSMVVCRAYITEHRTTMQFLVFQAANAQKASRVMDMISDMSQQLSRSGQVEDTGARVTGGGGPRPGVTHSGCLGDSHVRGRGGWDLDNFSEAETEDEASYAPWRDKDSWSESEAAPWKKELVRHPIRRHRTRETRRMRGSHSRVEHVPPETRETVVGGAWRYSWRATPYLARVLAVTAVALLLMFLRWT

pUL50 [4] = molecular target: T1, pUL50; test: fluorescence polarization

Chain of pUL53 hook peptide (Human cytomegalovirus) (P16794 whole entry): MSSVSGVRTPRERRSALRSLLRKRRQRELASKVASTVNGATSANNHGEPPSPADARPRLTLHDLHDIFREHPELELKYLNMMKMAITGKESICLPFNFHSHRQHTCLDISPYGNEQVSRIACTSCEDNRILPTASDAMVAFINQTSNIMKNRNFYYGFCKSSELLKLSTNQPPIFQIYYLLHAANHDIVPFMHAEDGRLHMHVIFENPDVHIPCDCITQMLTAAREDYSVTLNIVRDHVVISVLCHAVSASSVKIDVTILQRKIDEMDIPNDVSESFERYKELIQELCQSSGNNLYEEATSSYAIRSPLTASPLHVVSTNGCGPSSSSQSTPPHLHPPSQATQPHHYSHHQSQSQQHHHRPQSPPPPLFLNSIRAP

In the case of pUL53 hook peptide, the IC50 [1] is given as 110 nM.

In the case of pUL50 (from UniProt P16791), the Kd [2] is listed as 120 nM.

B1: pUL53 hook peptide (peptide)
chain: LTLHDLHDIFREHPELELKYLNMMKMAIT
For B1, the IC50 (pUL50 [3]) was 50 nM.

B2: BFLF2 hook peptide 78-110 (peptide)
chain: DRSHFSLRDFFRGISANFELGKDFLREMNTPIH
B2 gave a Kd (BFRF1) of 117 nM.

B3: pUL53 hook peptide 59-87 (peptide)
chain: LTLHDLHDIFREHPELELKYLNMMKMAIT
Molecule B3 has a Kd (pUL50 [4]) of 120 nM.
